In patent US20260070960A1 (US Dept. of Health and Human Services, published 2026):

How the values were obtained:
[1] = molecular target: T1, E7 peptide (…) in complex with HLA-A*02:01 on T2 cells (human; human papillomavirus (HPV)); assay: FACS on 293E7 cells, APC-anti-Flag; nanobody concentration not given
T1 construct: whole, on cells

[2] = molecular target: pMHC-E6, HLA-A*02:01-[…] monomer (refolded, soluble) (human; human papillomavirus (HPV))

B1: single-domain antibody F5 (camel VHH nanobody) (VHH)
VHH: EVQLVESGGGSVQAGGSLRLSCAASGFTFSNNRMGWVRQAPGKGLEWVSDINSSGGVTEYADSVKGRFTISRDNAKNTLYLQLNSLKIEDTAIYYCVYYSYLMRLRPGQGTQVTVSS
notes: also called VHH F5; nanobody F5
binding result [1]: no binding
Kd [2]: 1500 nM

B2: single-domain antibody G9 (camel VHH nanobody) (VHH)
VHH: EVQLVESGGGLVQPGGSLRLSCVASGFTFSNNRMGWVRQAPGKGLEWVSDINSSGGVTEYADSVKGRFTISRDNAKNTLYLQLNSLKIEDTAIYYCVYYSYLMRLRPGQGTQVTVSS
notes: also called nanobody G9
binding result [1]: no binding
